# T1: mKu WT (Mycobacterium tuberculosis, UniProt P9WKD9 1-273)
# T1 sequence: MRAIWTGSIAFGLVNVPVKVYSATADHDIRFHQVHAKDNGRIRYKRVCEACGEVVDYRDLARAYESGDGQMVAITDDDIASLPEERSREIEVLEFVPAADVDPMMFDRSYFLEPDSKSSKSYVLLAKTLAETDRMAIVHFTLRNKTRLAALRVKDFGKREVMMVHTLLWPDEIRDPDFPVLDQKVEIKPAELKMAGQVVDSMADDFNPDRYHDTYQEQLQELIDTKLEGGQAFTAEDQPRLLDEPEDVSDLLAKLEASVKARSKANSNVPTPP
# Key:
# [1] = target: T1, mKu WT; assay: cryo-EM; 5 uM mKu dimer and 5 uM DNA; supercomplex; EMSA: 25 mM Tris-Cl pH 7.5, 100 mM NaCl, 30 mM KCl, 0.1 mM EDTA, 0.05% Triton X-100, BSA, 2% glycerol, 2 mM DTT, 25 C, 30 min; FRET: 10 mM PBS pH 7.4, 25 C; cryo-EM: 4 C, 30 min; details: protein: recombinant; pET16b); chain copies: 2; hairpin at one end, other end blunt
# [2] = target: T1, mKu WT; assay: FRET; 250 nM DNA, 0-305 nM mKu; saturating synapsis signal; EMSA: 25 mM Tris-Cl pH 7.5, 100 mM NaCl, 30 mM KCl, 0.1 mM EDTA, 0.05% Triton X-100, BSA, 2% glycerol, 2 mM DTT, 25 C, 30 min; FRET: 10 mM PBS pH 7.4, 25 C; cryo-EM: 4 C, 30 min; details: protein: recombinant; pET16b); chain copies: 2; label: S4: 5'-Cy5, 3'-Cy3; complement (S5): 5'-Cy3, 3'-Cy5; blunt
Binder,binding result [1],binding result [2]
shDNA (21-mer/34-mer hairpin) (structured_DNA) DNA 1: GTTTTTAGTTTATTGGGCGCG DNA 2: CGCGCCCAGCTTTCCCAGCTAATAAACTAAAAAC,binds,–
50-bp Cy3/Cy5 FRET dsDNA (dsDNA) DNA 1: CCACACTGTCGCCGCCGACGTCTGTGATATGGCGTTGTTGCGCCGCCGAC DNA 2: GTCGGCGGCGCAACAACGCCATATCACAGACGTCGGCGGCGACAGTGTGG,–,binds
